Three molecules from patent US20210171647A1 can be followed below.

Experiment [1] has as its target xPro1.FL-x11: CRDmox40_1,3,4 (human; mouse) (UniProt P47741). As to the kind of experiment: FACS, transfected 293F cells, antibody 1 ug/mL.
Experiment [2] has as its target xPro1.FL-x6: CRDmox40_2-3 (human; mouse) (UniProt P43489). Description: FACS, transfected 293F cells, antibody 1 ug/mL.
Experiment [3] addresses xPro1.FL-x3: CRDmox40_3 (human; mouse) (UniProt P43489). Description: FACS, transfected 293F cells, antibody 1 ug/mL. Background: In flow cytometry, cells or beads pass a laser one at a time.
Experiment [4] has as its target xPro1.FL-x4: CRDmox40_4 (human; mouse) (UniProt P43489). Description: FACS, transfected 293F cells, antibody 1 ug/mL.
The target of experiment [5] is xPro1.FL-x9: CRDmox40_2-4 (human; mouse) (UniProt P43489). Description: FACS, transfected 293F cells, antibody 1 ug/mL.
Sequence of xPro1.FL-x9: CRDmox40_2-4 (human; mouse) (P43489 other isoform, or with tags, fused parts or gaps, form in doubt): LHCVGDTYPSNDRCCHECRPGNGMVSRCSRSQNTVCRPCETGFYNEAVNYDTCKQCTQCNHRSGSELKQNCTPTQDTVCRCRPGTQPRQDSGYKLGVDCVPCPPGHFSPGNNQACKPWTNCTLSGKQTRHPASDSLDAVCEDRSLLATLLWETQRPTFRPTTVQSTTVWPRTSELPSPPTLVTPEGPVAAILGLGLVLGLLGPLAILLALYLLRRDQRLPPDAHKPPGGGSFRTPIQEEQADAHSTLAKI
For experiment [6], the target named is xPro1.FL-x1: CRDmox40_1 (human; mouse) (UniProt P47741). As to the kind of experiment: FACS, transfected 293F cells, antibody 1 ug/mL.
In experiment [7] the target is xPro1.FL-x5: CRDmox40_1-2 (human; mouse) (UniProt P47741). As to the kind of experiment: FACS, transfected 293F cells, antibody 1 ug/mL.
In experiment [8] the target is xPro1.FL-x8: CRDmox40_1-3 (human; mouse) (UniProt P47741). Description: FACS, transfected 293F cells, antibody 1 ug/mL.
Experiment [9] addresses xPro1.FL.x2: CRDmox40_2 (human; mouse) (UniProt P43489). As to the kind of experiment: FACS, transfected 293F cells, antibody 1 ug/mL.
Experiment [10] concerns the target xPro1.FL-x7: CRDmox40_3-4 (human; mouse) (UniProt P43489). Description: FACS, transfected 293F cells, antibody 1 ug/mL.
Experiment [11] addresses xPro1.FL-x10: CRDmox40_1,2,4 (human; mouse) (UniProt P47741). Description: FACS, transfected 293F cells, antibody 1 ug/mL.
Experiment [12] has as its target human OX40, full-length, on cells (human) (UniProt P43489). Description: flow cytometry on activated human CD4+ T cells.
The target of experiment [13] is human OX40 extracellular domain (ECD) protein (human) (UniProt P43489). As to the kind of experiment: epitope binning by competition against labelled BMK10 on human OX40 (self-competition control); the antibody named in the legend box is titrated; the text describes an ELISA, the axis on the sheet reads MFI.
Sequence of human OX40 extracellular domain (ECD) protein (human) (P43489 29-214): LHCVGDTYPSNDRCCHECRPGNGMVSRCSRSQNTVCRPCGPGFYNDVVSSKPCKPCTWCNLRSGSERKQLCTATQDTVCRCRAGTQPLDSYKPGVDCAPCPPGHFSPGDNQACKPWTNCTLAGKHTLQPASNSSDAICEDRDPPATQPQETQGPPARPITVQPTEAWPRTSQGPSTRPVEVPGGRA
Experiment [14] has as its target mouse OX40 (mPro1) on transfected 293F cells (mouse) (UniProt P47741). Description: FACS, transfected 293F cells, antibody 2 ug/mL.
Experiment [15] addresses human CD40 (hPro40) on transfected 293F cells (human) (UniProt P25942). As to the kind of experiment: FACS, transfected 293F cells, antibody 2 ug/mL.
Experiment [16] has as its target human OX40, full-length, on cells (human) (UniProt P43489). As to the kind of experiment: FACS, transfected 293F cells, antibody 2 ug/mL.
The target in experiment [17] is human OX40 extracellular domain (ECD) protein (human) (UniProt P43489). As to the kind of experiment: competition ELISA: human OX40 ECD coated, antibody titrated in a mix with a constant concentration of OX40L, bound OX40L detected at OD450. In general terms: ELISA stands for enzyme-linked immunosorbent assay.
The target in experiment [18] is human OX40, full-length, on cells (human) (UniProt P43489). As to the kind of experiment: flow cytometry, CHO-K1 cells expressing human OX40, MESF beads.
Sequence of human OX40, full-length, on cells (human) (P43489 29-277): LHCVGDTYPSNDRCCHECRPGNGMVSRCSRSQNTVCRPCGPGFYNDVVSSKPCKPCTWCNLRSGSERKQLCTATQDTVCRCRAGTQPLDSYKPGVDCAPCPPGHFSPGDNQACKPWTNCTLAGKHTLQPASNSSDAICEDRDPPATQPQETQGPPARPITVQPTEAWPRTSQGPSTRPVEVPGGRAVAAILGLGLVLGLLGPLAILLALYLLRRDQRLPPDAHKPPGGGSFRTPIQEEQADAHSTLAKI
Experiment [19] has the same target. As to the kind of experiment: flow cytometry, MFI against antibody concentration; neither the legend nor paragraph 266 names the cells, target taken as cell-surface human OX40 because the antibodies are anti-OX40.
Experiment [20] has the same target. Description: flow cytometry on human OX40 transfected CHO-K1 cells.
Experiment [21] has as its target human OX40 extracellular domain (ECD) protein (human) (UniProt P43489). As to the kind of experiment: SPR, Biacore T200, antibody captured, OX40 as analyte. A general note: SPR reads the build-up and loss of mass on a sensor chip optically.

The term EC50 (read off the curve) denotes the midpoint of the concentration-response curve. Lower therefore signals higher potency in that assay. One may read the Kd as the equilibrium constant for the complex coming apart. Usually kon stands for a measure of how fast the partners come together. A lower kon goes with slower complex formation.

Sequence of xPro1.FL-x7: CRDmox40_3-4 (human; mouse) (P43489 other isoform, or with tags, fused parts or gaps, form in doubt): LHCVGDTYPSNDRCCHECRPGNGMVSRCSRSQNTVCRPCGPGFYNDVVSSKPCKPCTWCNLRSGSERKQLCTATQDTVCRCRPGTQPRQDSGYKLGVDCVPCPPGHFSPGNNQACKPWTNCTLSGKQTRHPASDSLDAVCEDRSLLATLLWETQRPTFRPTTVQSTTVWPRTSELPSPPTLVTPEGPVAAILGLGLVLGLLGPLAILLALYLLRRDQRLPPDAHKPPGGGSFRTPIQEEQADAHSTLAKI
Sequence of xPro1.FL-x4: CRDmox40_4 (human; mouse) (P43489 other isoform, or with tags, fused parts or gaps, form in doubt): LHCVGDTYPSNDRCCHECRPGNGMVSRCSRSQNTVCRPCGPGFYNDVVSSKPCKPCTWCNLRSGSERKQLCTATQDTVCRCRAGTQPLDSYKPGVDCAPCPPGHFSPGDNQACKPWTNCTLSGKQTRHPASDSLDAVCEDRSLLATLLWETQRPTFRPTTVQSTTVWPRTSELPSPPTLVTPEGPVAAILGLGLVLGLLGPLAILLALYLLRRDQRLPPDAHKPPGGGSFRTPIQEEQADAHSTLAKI
Sequence of xPro1.FL.x2: CRDmox40_2 (human; mouse) (P43489 other isoform, or with tags, fused parts or gaps, form in doubt): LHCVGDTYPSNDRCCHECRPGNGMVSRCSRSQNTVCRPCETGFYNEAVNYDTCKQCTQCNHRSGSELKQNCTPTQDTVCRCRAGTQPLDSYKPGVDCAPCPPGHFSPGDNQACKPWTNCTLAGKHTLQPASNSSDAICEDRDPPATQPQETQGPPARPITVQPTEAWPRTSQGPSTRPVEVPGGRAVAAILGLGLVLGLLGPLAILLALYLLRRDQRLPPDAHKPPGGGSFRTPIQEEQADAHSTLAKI
Sequence of xPro1.FL-x3: CRDmox40_3 (human; mouse) (P43489 other isoform, or with tags, fused parts or gaps, form in doubt): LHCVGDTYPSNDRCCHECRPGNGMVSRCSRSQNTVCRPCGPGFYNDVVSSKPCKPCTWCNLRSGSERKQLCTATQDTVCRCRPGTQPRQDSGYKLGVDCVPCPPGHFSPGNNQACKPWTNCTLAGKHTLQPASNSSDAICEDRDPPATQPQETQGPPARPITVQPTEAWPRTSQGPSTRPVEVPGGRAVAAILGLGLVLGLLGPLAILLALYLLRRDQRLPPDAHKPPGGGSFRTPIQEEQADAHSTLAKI
Sequence of xPro1.FL-x6: CRDmox40_2-3 (human; mouse) (P43489 other isoform, or with tags, fused parts or gaps, form in doubt): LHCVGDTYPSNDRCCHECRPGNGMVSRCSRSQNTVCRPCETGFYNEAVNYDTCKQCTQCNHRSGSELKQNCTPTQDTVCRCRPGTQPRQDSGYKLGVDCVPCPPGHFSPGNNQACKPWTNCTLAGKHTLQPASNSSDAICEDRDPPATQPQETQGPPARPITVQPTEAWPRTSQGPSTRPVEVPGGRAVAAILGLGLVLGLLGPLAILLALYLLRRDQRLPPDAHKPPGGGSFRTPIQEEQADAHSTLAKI
Sequence of mouse OX40 (mPro1) on transfected 293F cells (mouse) (P47741 20-272): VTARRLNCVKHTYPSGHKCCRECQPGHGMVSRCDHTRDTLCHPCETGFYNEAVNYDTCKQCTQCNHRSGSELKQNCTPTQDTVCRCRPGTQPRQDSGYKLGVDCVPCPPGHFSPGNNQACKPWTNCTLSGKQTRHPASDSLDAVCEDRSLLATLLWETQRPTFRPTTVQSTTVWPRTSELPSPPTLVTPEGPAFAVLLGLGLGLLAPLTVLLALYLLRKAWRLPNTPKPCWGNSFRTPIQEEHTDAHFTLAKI
Sequence of human CD40 (hPro40) on transfected 293F cells (human) (P25942 21-277): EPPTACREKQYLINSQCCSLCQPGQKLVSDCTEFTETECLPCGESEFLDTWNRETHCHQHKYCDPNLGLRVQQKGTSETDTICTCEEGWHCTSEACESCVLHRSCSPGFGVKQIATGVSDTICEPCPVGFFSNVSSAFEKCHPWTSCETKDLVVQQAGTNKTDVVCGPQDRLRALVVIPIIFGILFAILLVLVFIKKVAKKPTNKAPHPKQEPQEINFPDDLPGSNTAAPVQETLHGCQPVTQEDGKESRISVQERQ

B1: 1.214.23-u1-IgG1K (antibody, V domains shown)
VH: QVQLQESGPGLVKPSGTLSLTCVVSGGSISNRNWWSWVRQPPGKGLEWIGEIFHSGNTNYNPSLKSRVTISVDKSKNQFSLKVNSVTAADTAVYYCAKSFAVALDSWGQGTLVTVSS
VL: DIQLTQSPSFLSASVGDRVTITCRASQDINSYLAWCQQKPGKAPKLLIYAASSLQSGVPSRFSGTGSGTEFTLTISSLQPEDFATYYCQQLFSYPITFGQGTRLEIK
Regarding B1, the MFI was 6260 in experiment [1]; 113 in experiment [2]; 2250 in experiment [3]; 23200 in [4]; 80.1 in [5]; 5420 in [6]. Also, the MFI came to 21700 in experiment [7]; 42.6 in experiment [8]; 23300 in [9]; 6540 in experiment [10]; 19600 in experiment [11]. The PE + % was 70.8% in [1]; 2.31% in [2]; 70% in experiment [3]; 97.7% in [4]; 0.244% in [5]; 82.9% in [6]. The PE + % in [7] came out at 96.5%; in [8], 0.743%; in experiment [9], 92.8%; in experiment [10] it was 81.5%; in experiment [11], 94.4%.

B2: 1.134.9-u1-IgG1L (antibody, V domains shown)
VH: QVQLQESGPGLVKPSGTLSLTCAVSGGSISSYNWWSWVRQPPGKGLEWIGEIYHGGNTNYNPSLKSRVTMSVDNSKNQFSLKLSSVTAADTAVYYCARAPGDWGGSPYFDFWGQGTLVTVSS
VL: SSELTQDPAVSVALGQTVRITCQGDNLRTYYASWYQQKPGQAPILLIYGRNKRPSGIPDRFSGSSSGNTASLTITGAQAEDEAAYYCNSRDSSGNPVVFGGGTKLTVL
In the case of B2, the MFI in experiment [1] amounted to 9400; in [2] it was 211; in experiment [3] it was 3800; in [4] it was 24100; in experiment [5] it was 44.1; in [6], 6440. The MFI was 61 in [7]; 43.2 in experiment [8]; 49.5 in [9]; 9160 in experiment [10]; 42.7 in [11]. Further, the PE + % was found to be 74% in experiment [1]; 6.75% in experiment [2]; 66.1% in experiment [3]; 96.6% in [4]; 0.668% in experiment [5]; 75.3% in experiment [6]. In addition, the PE + % was 1.73% in experiment [7]; 0.678% in [8]; 0.904% in [9]; 80.3% in [10]; 0.624% in experiment [11].

B3: BMK10 (antibody, from another filing, V domains shown)
VH: EVQLVQSGAEVKKPGASVKVSCKASGYTFTDSYMSWVRQAPGQGLEWIGDMYPDNGDSSYNQKFRERVTITRDTSTSTAYLELSSLRSEDTAVYYCVLAPRWYFSVWGQGTLVTVSS
VL: DIQMTQSPSSLSASVGDRVTITCRASQDISNYLNWYQQKPGKAPKLLIYYTSRLRSGVPSRFSGSGSGTDFTLTISSLQPEDFATYYCQQGHTLPPTFGQGTKVEIK
Turning to B3, the EC50 (read off the curve) in experiment [12] was determined as 0.7 nM; in experiment [19] it was 0.8 nM; in experiment [20], 0.6 nM. In addition, the IC50 (read off the curve) in [13] is 6 nM; in [17], 3 nM. In addition, the MFI amounted to 5000 in experiment [14], 28.8 in experiment [15] and 27600 in experiment [16]. In addition, the values for the PE + % in experiment [14], in experiment [15] and in [16] were 91.6%, 0.068% and 98.3%, respectively. This molecule had a Kd in [18] of 0.23 nM. The kon in [21] was determined as 442000 M⁻¹ s⁻¹.
